According to paper PMC12658005 (Communications Biology, 2025):

Biological target: the molecule itself
Experiment: cryo-EM structure

B1: F plasmid TraT protein complex (TraT-TS) (natural protein)
chain: CGAMSTAIKKRNLEVKTQMSETIWLEPASERTVFLQIKNTSDKDMSGLQGKIADAVKAKGYQVVTSPDKAYYWIQANVLKADKMDLRESQGWLNRGYEGAAVGAALGAGITGYNSNSAGATLGVGLAAGLVGMAADAMVEDVNYTMITDVQIAERTKATVTTDNVAALRQGTSGAKIQTSTETGNQHKYQTRVVSNANKVNLKFEEAKPVLEDQLAKSIANIL
modifications: lipid anchor on the N-terminal cysteine (density not resolved)
notes: also called TraTF; TraT exclusion protein complex; copies: 10
  stoichiometry N: 10
